From publication PMC8457756 come the findings set out here.

Holding throughout (test): EMSA
Conditions in all cases: EMSA: 0.5 uM dsDNA probe, semi-pure TF titrated, PBS + NP40, 10 uL; 6% polyacrylamide gel, 0.5x TBE, 100 V 1 h, room temperature running buffer; pH and …
(In EMSA bound probe runs differently from free probe, usually more slowly.)

For data set [1], the system named is GntR_1482 (Clostridium thermocellum DSM 1313).
Data set [2] deals with Rex_2471 (Clostridium thermocellum DSM 1313).
Data set [3] has as its system BlaI_1845 (Clostridium thermocellum DSM 1313).
Data set [4] deals with TetR_0692 (Clostridium thermocellum DSM 1313).
Data set [5] deals with GlyR2 (Clostridium thermocellum DSM 1313).

In the case of “ACCCCTGATTATGACAACATGACAGTAACAATCCGG (double strand) [GntR_1482 test oligo]”, the binding signal (% probe shifted) in data set [1] is more than 70.
As to “ATTATTTTATTTTGTTATATTTTTAACAAAAAAATTATT (double strand) [Rex_2471 test oligo]”, in data set [2], the binding signal (% probe shifted) was more than 70.
“CAGGATGTAATGGCTTGTCGTCAGACCGGAG (double strand) [Rex_2471 negative oligo]”: the binding signal (% probe shifted) in data set [2] was less than 10.
Turning to “GACCATAACAATAGTCCAAGTTCATCT (double strand) [BlaI_1845 test oligo]”, the binding signal (% probe shifted) in data set [3] was more than 70.
As for “TAAGCAGGGATATGACCACGTGGTCACCGTCCTCTG (double strand) [TetR_0692 test oligo]”, the binding signal (% probe shifted) in data set [4] was more than 70.
For “TAATTGGATCTTTGTTAATTGCAGTTTT (double strand) [GntR_1482 negative oligo]”, in data set [1], the binding signal (% probe shifted) was less than 10.
Regarding “TATAGCACCGGTAACATTACAAATCATAGAAT (double strand) [GlyR2 test oligo]”, the binding signal (% probe shifted) in data set [5] is more than 70.
As to “TGATATGGGGTGTTTGCTGTTTTTGCC (double strand) [negative oligo 27 bp]”, the binding signal (% probe shifted) in data set [3], in data set [4] and in data set [5] was less than 10 each time.
